Assay results from publication PMC6993007, “Protocol for bevacizumab purification using Ac-PHQGQHIGVSK-agarose” (MethodsX, 2019).

Columns and labels:
bevacizumab [1] = assay: Bevacizumab purification by Ac-PHQGQHIGVSK-agarose affinity chromatography from the CHO cell culture; conditions: in words; mild elution conditions
Protocol: Material • Adsorption buffer: 20 mM sodium phosphate, pH 7.0, 1 M (NH4)2SO4 • A column containing 0.5 mL (0.5 × 2.5 cm) of Ac-PHQGQHIGVSK-agarose • Elution buffer: 20 mM sodium phosphate, pH 7.0 • Absorption UV/VIS spectrophotometer
Procedure • 1 Clarify the CHO cell culture containing bevacizumab by centrifugation or filtration. • 2 Add to the sample the amount of (NH4)2SO4 necessary to achieve a final concentration of 1 M. • 3 Equilibrate the chromatographic column containing Ac-PHQGQHIGVSK-agarose with 20 volumes of adsorption buffer. • 4 Load the column with CHO cell culture filtrate containing bevacizumab. Note: the amount of bevacizumab loaded to the column must be lower than the maximum capacity of the chromatographic matrix synthesized. • 5 Wash the column with adsorption buffer until the absorbance at 280 nm achieves the baseline value. • 6 Elute the bound protein by adding 20 mM sodium phosphate, pH 7.0. • 7 Measure total protein concentration with Bradford reagent using pure bevacizumab as the protein standard. • 8 Measure bevacizumab concentration by HPLC using a protein A analytical column as per Zou et al.. • 9 Perform sodium dodecyl sulfate polyacrylamide gel electrophoresis (SDS-PAGE) (12.5 % under reductive conditions) as described by Laemmli and stain gels with Coomassie Blue following the standard procedure.

bevacizumab [2] = conditions: in words, Kd not given; ref [2]; cited from earlier work
Text: Bevacizumab is a monoclonal antibody, produced in CHO cells, used for the treatment of many human cancers. It is an anti-vascular endothelial growth factor (antsi-VEGF) that blocks the growth of tumor blood vessels. Nowadays its purification is achieved by affinity chromatography (AC) using protein A which is a very expensive ligand. […] This short peptide ligand has higher stability and lower cost than protein A and it can be prepared very easily by solid phase peptide synthesis. The ...

Substance | integrity of bevacizumab (mAb) (bevacizumab [1]) | affinity for bevacizumab (bevacizumab [2])
bevacizumab: anti-vascular endothelial growth factor (anti-VEGF) monoclonal antibody, produced in CHO cells | preserve the integrity | 
Ac-PHQGQHIGVSK-NH2 |  | binds bevacizumab with high affinity
